Measured values published in CN114671953A (BORGI BIOMEDICAL SCIENCE AND TECH HANGZHOU LIMITED COMPANY, dated 2022).
Substitutions are numbered along the chain they refer to. One block for each binder: values may come before it.

Target: T1, 人Nectin-4 (human, UniProt Q96NY8 32-349)
T1 construct: construct not described; also called human Nectin-4; PVRL4
T1 sequence (looked up): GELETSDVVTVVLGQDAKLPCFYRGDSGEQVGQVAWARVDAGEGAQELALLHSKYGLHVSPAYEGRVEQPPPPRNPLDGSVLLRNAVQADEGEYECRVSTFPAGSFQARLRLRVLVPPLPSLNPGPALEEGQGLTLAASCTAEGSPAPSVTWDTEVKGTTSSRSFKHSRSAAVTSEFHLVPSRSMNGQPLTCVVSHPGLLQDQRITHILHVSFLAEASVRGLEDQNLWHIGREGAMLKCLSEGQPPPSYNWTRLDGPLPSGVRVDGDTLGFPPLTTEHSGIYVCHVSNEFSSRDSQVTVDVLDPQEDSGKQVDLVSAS
Assay: BLI, VHH-Fc on anti-hIgG Fc probe, human Nectin-4 as analyte
Design: 响应: unit not given here

B1: CMB7-11 (Fc fusion)
chain: QVQLVESGGGLVQAGGSLRLSCAASGSIFSISAMGWFRQAPGNQREMVAAITKGGSVNYADSVKGRFTITRDNAKNTVYLQMNSLKPEDTAVYYCAAAVGAPFEYDYWGQGTQVTVSS
notes: Tested as VHH fused to human Fc; also called VHH-Fc; not shown: human Fc fused to the VHH
响应: 0.94

B2: CMB7-6 (Fc fusion)
chain: QVQLVESGGGLVQPGGSLRLSCAASGSIFSINVMGWYRQAPGKQRELVATITSGGSVNYADSVKGRFTISRDNANNTVYLQMNTLKPEDTAVYYCTADQLGPLGLLSPTIYWGQGTLVTVSS
notes: also called VHH 36; VHH-Fc; not shown: human Fc fused to the VHH
响应: 0.835

B3: CMB7-20 (Fc fusion)
chain: B2 chain with I31M, V57T, T84S, A97G, L105T, L106F, T109I, I110V, L117Q
notes: as for B1
响应: 0.783

B5: CMB7-9 (Fc fusion)
chain: QVQLVESGGGLVQPGGSLRLSCAASGSIFSINAMGWYRQAPGKQRELVASITNGGSTKYDDSVKGRFTISRDNAKNTVYLQMNSLKPEDTAVYYCAAASLVVGGTWEYDTWGQGTLVTVSS
notes: as for B1
Kd: 0.53 nM
响应: 0.891

B6: CMB7-22 (Fc fusion)
chain: QVQLVESGGGLVQAGGSLRLSCAASGSIFSINAMGWFRQAPGKQRELVAAITSGGSTNYAVSVKGRFTISSDKAKNTVYLQMNSLKPEDTAVYYCAAARGEPFEYEYWGQGTLVTVSS
notes: as for B1
响应: 0.841

B9: CMB7-18 (Fc fusion)
chain: QVQLVESGGGLVQAGGSLRLSCAASGSIFSINAMGWHRQGPGDQRELVAAITSGGSTKYVDSVKGRFTISRDNAKNTVYLQMNSLKPEDTGVYYCAAMGGSYEYDYWGQGTQVTVSS
notes: as for B1
Kd: 0.81 nM
响应: 0.729

B10: CMB7-10 (Fc fusion)
chain: QVQLVESGGGLVQAGESLRLSCAASGSIFSINAMAWYRQAPGKQRELVAAITSGGSTKYADSVKGRFTISRDNAKNTVYLQMNSLKPEDTAVYYCAAMDRTTLEYDYWGQGTLVTVSS
notes: as for B1
Kd: 0.958 nM
响应: 0.891

The remaining lines, values ahead:

响应: 0.877
B4: CMB7-23 (Fc fusion)
chain: B2 chain with I28D, S30T, I51V, V57L, N75K, T84S, L100F, L105H, T109I, L117Q
notes: as for B1

响应: 0.972
B7: CMB7-7 (Fc fusion)
chain: B6 chain with V48A, N58K, V61D, S71R, K73N, S84R, A91G, R99T, E106N, L113Q
notes: as for B1

响应: 0.915
B8: CMB7-8 (Fc fusion)
chain: B6 chain with S27N, I31V, T57I, N58R, A60V, V61D, S71R, K73N, F103Y, E106D
notes: as for B1

响应: 0.867
B11: CMB7-19 (Fc fusion)
chain: B10 chain with E16G, R19G, G26E, I31Y, A35G, Y37F, T57I, T90R, A91G
notes: as for B1

响应: 0.97
B12: CMB7-12 (Fc fusion)
chain: QVQLVESGGGLVQPGGSLRLACAASGSIFSINVMGWYRQAPGKQREYVASVSRGGSVKYVDSVKGRFTVSRDNAKNTMYLEMNSLKPEDTAIYFCGAETKMGRGFDSWGQGTQVTVSS
notes: as for B1
